B1: TPR t1 (parent)
chain: GACCAAUCUGCCCUCAGAGCUCGAGAACAUCUUCGGAUGCAGAGGAGGCAGGCUUCGGUGGCGCGAUAGCGCCAACGUCCUCAACCUCCAAUGCAUCCCACCACAUGAUGAUGCCUGAAGAGCCUUGGUUUUUUG

Variants of: B1
Assay: polymerase ribozyme fitness, log enrichment relative to wild type (log ratio); higher = more active; in vitro selection for triplet polymerase activity
How it was run: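 Fitness measures genotype enrichment against wild-type enrichment on a logarithmic scale, with inverse-variance-weighted averaging of replicates. The logarithm is base 2, and genotypes were kept only with ≥10 input reads and ≥1 read per output in Illumina sequencing. The sequenced libraries came from one triplicate in vitro selection round, including frozen incubation at −7 °C, of PCR-built, transcribed mutant libraries of each subunit of a heterodimeric triplet polymerase ribozyme.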

Row | Variant | polymerase ribozyme fitness (log ratio)
1 | A74U U126G | -1.89
2 | U78G U130G | -0.347
3 | C80U A84U | -1.02
4 | C73G C101U | -0.446
5 | A74C C82A A105U | -2.29
6 | C80A C85U C86A U87C | -7.24
7 | C80U C85A | -2.89
8 | C79A U106C | -0.96
9 | G77U A111U | -3.23
10 | G77U A119G | -0.758
11 | U78A C104U C115U | -1.54
12 | C73U C88U | -0.361
13 | U81A C102A | -3.36
14 | C76U C94A U106C U112C | 0.627
15 | C73G C124A | 1.65
16 | U78C A83G U106C | -1.19
17 | G77A C79U C124A | 1.87
18 | G77A A83U U87C C104U A105C | -5.02
19 | C73A A119G | 0.838
20 | C73A U87G | -0.467
21 | U78C U112A | 1.12
22 | C73A A91U | -0.926
23 | C73A A91G | -0.975
24 | A74C A84U | -0.261

Row | Variant | polymerase ribozyme fitness (log ratio)
25 | C73A U78C C94U | -0.492
26 | C72U U87G C89U C123A | 0.156
27 | C79G C89U U112A | -2.07
28 | G77U A91U U132A | -2.14
29 | G77A A91U | -1.6
30 | C79G C85G | -3.02
31 | C79G C85A | -3.62
32 | C73U U87A A105U | -1.83
33 | U78G A84U C115U A121C | -3.92
34 | C73A U87A G120C C124A U132G | -4.42
35 | G77A U116A | -4.07
36 | C73A C104U U130G U132C | 1.03
37 | C73U U126A | -1.7
38 | G77A C82A G110A C123A | -2.98
39 | U78G U116C U133A | -0.304
40 | C76G U81C C94A G117A | -2.22
41 | C76U A90G A105U | -1.84
42 | G77U U78C A95U C123G | 0.706
43 | C80A C114G G117U | -6.34
44 | U78A G107C | -6.06
45 | A74U C88G U112G U132G G135A | -0.922
46 | G77A C89A C94U G122A | -4.01
47 | C73A C99U A119U U130A | -4.24
48 | C73U C80A A90U U106A | -5.89

Row | Variant | polymerase ribozyme fitness (log ratio)
49 | C73A G128C | -2.05
50 | C80U U133G | -0.514
51 | C73U C124A G127C | 1.61
52 | C79G U87G U92C G120U | -4.54
53 | G77C | -0.424
54 | G77A | -0.264
55 | G77U | -0.194
56 | A75G G113C | -2.4
57 | U78G G110U G127U | -2.47
58 | A75U C99U U109G C115U U116A | -7.29
59 | C79A A95U | -1.9
60 | C73U G113A | -0.0568
61 | C80U C102A U106A U112A | -4.1
62 | U78C A105C A121C | -0.547
63 | A75G C82U A121G C124G | 1.16
64 | G77U U131A | -0.157
65 | U81A C82A C98U | -3.39
66 | C79U C82A | -1.23
67 | C73G U133G | -1.21
68 | C73G A119U U132C | -1.94
69 | C73A G117U | -2.74
70 | C76G A90C C101U | -1
71 | U78G G113A C124G | -0.667
72 | U78G C114U U129G | -4.71

Row | Variant | polymerase ribozyme fitness (log ratio)
73 | C80A A84U | -3.74
74 | C79U A95G A105U | -2.87
75 | C72U U129G | -1.46
76 | C73G G120A | -0.212
77 | C76A A91G C115A | -0.508
78 | U78C C88U A121C | 1.67
79 | C73U U96G G117A | -2.78
80 | G77U C123U | 1.47
81 | G77U C123G | 1.23
82 | C79G C114A | -0.594
83 | C80U C101U A118G A121U U131A | 0.732
84 | A74C G77C | -0.117
85 | C73U C89U C101U | -0.461
86 | C76G C123U | 1.06
87 | C73G C85U G93U A95G C123A | -3.28
88 | C73U G127U | -0.489
89 | C73U G127C | -0.681
90 | C72U U132C | -0.841
91 | C76U G120A | 1.69
92 | C73U C86A | -0.276
93 | C73A C123A | 1.63
94 | C73A C123G | 1.74
95 | C76G G93A C104U U133A | -0.348
96 | A74C C76A A121C | -1.23

Row | Variant | polymerase ribozyme fitness (log ratio)
97 | C73A C85U U116G | -2.18
98 | C73U U96C C99U | -3.39
99 | U78G G93A | -0.0742
100 | U78G G107U | -5.32
101 | C73U A84U G110U | -1.67
102 | C73U A90C A95C | -1.36
103 | C80U C97U | -0.856
104 | U78A U112C G120A | -0.475
105 | C73A C82U | -0.0503
106 | C80G U132C | -4.66
107 | U78A U130G | -0.269
108 | G77C C114A C124U | -2.41
109 | U78A C82G C115A U130A | -0.912
110 | C73U G110A | -0.705
111 | U78C U109A | -5.34
112 | A74C U130A | -0.25
113 | U78G G113U | -3.89
114 | U78G G113A | -1.05
115 | C73A A91U C94U | -2.58
116 | C73U G117A G128C | -5.18
117 | C73G C101U U133A | -1.03
118 | U78G A91C U92G | -3.13
119 | U78G C80U | -0.927
120 | C73U C79U C104U | -0.0392

Row | Variant | polymerase ribozyme fitness (log ratio)
121 | U78A C115G U116G | -3.11
122 | A74U A83G C99U A100U G120U | -6.6
123 | U78A C94A U125G | -2.31
124 | G77C C88A | -0.0409
125 | C73A C114A | -1.84
126 | U78G U96A C124G | 1.43
127 | C73A C86U G128A | -1.81
128 | U78A C123U | 1.1
129 | A74U A111C | -1.62
130 | C79G C89A | -5.03
131 | C79U C124G | 1.81
132 | C79U C124A | 1.12
133 | C73A C123A G135C | 0.5
134 | U78G C102U | -1.93
135 | G77U C114G A121C | -1.7
136 | U78C U125A | -0.432
137 | C73G G117A C124A | 0.864
138 | C73G G113A | -1.29
139 | C73A A74C | -0.174
140 | U78C C86A | -0.372
141 | C76U C79A G120C | 0.319
142 | G77U C115G A118C | -5.42
143 | C73A U126A | -1.73
144 | C80A U96C C115A | -3.34

Row | Variant | polymerase ribozyme fitness (log ratio)
145 | C72U U109A | -5.61
146 | G77U C88G U92A G113C G122A C123G | -4.68
147 | A74C C101G | -2.14
148 | C73U U87C C89G G120A | -1.46
149 | C76U C123G | 0.558
150 | A74U G93U G117C | -5.37
151 | U78A C79A A95C U133A | -4.23
152 | C73U C115U | -0.667
153 | G77U C101G G127A | -2.44
154 | C73U G120A | 0.593
155 | C73U U129G | -0.782
156 | C73U U129A | -1.05
157 | G77A U109A | -5.95
158 | A74U G93A | -0.498
159 | G77U A100C A118U U129C | -1.45
160 | G77A A83C C94U C115G U116C U125G | -4.83
161 | A75U C99U | -3.69
162 | A74G C102G U132C | -5.92
163 | A74U U87A | -0.842
164 | C80A U116G G120C C123A | -3.59
165 | C72U U96A | -1.65
166 | C80G U106G G110A C124G | -6.57
167 | C79G G120A U130C | -1.26
